Laboratory results from the domain aggregation screens of Martell et al. (2025).

Assay: soluble fraction after stress (log2 fold change); higher = more stays soluble; pooled small domains, quantitative proteomics
Settings: stress: 75 degC
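Further: 20 min heating vs room temperature control held 20 min.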

Row | Sequence | soluble fraction (log2)
1 | HMGALSLDMLFDRFDALQEQSMGDKTEGGQELRGMIRTFIEQEKLDIRVTRTTTNAALLEMIEKEMQG | -0.717
2 | HMGASALTEREREVLRLLEGGGSDKRIARQLAISEHGVRYHLKSIYKKLGVHDRVSAIAAGRRLAS | -1.37
3 | HMGASTQLVEIKNAYENGEWQNVIDLAGKLHEKYNGSEEDKEAQEMAKNSQSKLDEAAAAKAAEEA | 0.0816
4 | HMGASYSQFLDQVDSGNVQKVAFGGDMRGGTSQLTYTTRGGQSSTITAPFDRDLINVLRTKNVEIVQEEP | 0.236
5 | HMGATFITSSKDNAINIRQAAGTDSKVIETIKNGHILESSEKSGEWYKVTYYDSDIKKTFTGYIHNSQLK | 0.376
6 | HMGAVQFAEQKIHIGSRWIGKKISEFSAESDAFVILIKRGSEVVIPRGPTDIVENDVLVIHVPD | -3.05
7 | HMGAVVSPMPGVILDIKVKEGDSVSEGQTVIILEAMKMENEIVSEFTGTVSAIRVKKGDTVDTDAVLVEI | -1.76
8 | HMGAYPENSLLKERGQSAVYLIQENRKRLFFNAEAFLINGYNWKDIQVVDDLSKILTGKVIYAK | -2.83
9 | HMGDAATVFRDHYNINSAAQAQAALDRKEALWEQPNPWRDSDNREVFDWAAQTVKDRFDSGKYKPK | 0.626
10 | HMGDDVRKNILDVLSKFERVDITDLDSLELVRFYLEIEDIFDIEIKENDFYRLKSVDSIVDYIRNKSFF | -1.31
11 | HMGDIQFMEYRINHSSGWIGKNISDFAAVSKNLVILIKRGQDVVIPRGPTAIMEDDVLVLHA | -1.88
12 | HMGDITALMPGKVIQIIVKEGQEIKVGDPLIVIESMKMENTISSEVNGTIKSINIQIDDNVQFDQVLFTV | -2.54
13 | HMGDITIPDLQGMSFDQAREKLKALGLSIGKISYTSDTSKDDGVVISQGLQAGGKASKGATVDITINET | 0.332
14 | HMGDLEEAVKDFSEAIRLNDSWAEAYANRAVVYAEQGDAAQSDQDAEKARLLGVDQNRLNEMLNAVNS | 0.294
15 | HMGDLKALMPGKVTQVLVSGGQKVKVGEPVLLMESMKMEQTIVATKDGDISEILVSEGDTVEVGKIMIKI | -0.00398
16 | HMGDLTVPDLSGLTVDQAKQRLKDMGLVLGKITTQEDSSKPDGVIISQSPSADGKINKGQLVDVVVNKLS | 0.034
17 | HMGDTHKVPGVKGVNVEQAMDMLSRLDLKAVVIDSVYVKDKKLGTVIEQNPVEGSVVKPGRPIYLVVNSRS | 0.352
18 | HMGDTISVPAVRTLAYNKAMDILNAEGLKGIVADSVYDNHTAPGTVIEQNPKAGTIVKEGREVFLTIHA | 0.117
19 | HMGDWITGTVTRIADNGWGTFQPENAHNTVSIPPKMVADNQLKEADSIKIIAEPSPDGTKTFIKAISRE | 0.113
20 | HMGEDSEPVQVPDVTGQPLWEARRTLSSMGLKVLDDGGSGSVTAQMPSAGATLRNGGQMMLYTYDEALPE | 0.126
21 | HMGEEIRTWTDAQGRKIEARMSMLDGDQVLLELKDGRKIPYPLAKLSADDAHYARHFASASASD | -0.0336
22 | HMGEFVQLKNRTGSVIEAKILNYQNGKVKLQRKDGVIFVVPISIFDRMSSSIIENKAKEMDSF | -0.263
23 | HMGEIHAQIPGLVSHLFVKEGNTVQVEQKLFILEAMKMENEIDSPIQGTVKRIHIATGSKVEKGDLIMEIS | -1.47
24 | HMGEKFTFGQIAKAKAYAKTYANDMTSAVKNIEAIATGLSKHPEVADTLKKANENQELNRITKLAG | -0.0289
25 | HMGEKPTEITLSNAISVQELAEKLYVSETDIIRTLFLDGIIVNINQVLDLETAVKVGDQLGVTITIVE | -1.33
26 | HMGEKTVPNVIGQKLATAKQLLEKEGLTVGSTSYNKNQADKDTVLSTDPAPGSHLSEGAKVNLTLSSGA | 0.0786
27 | HMGEKVIAVSGGFDPIHVGHLRMMQDAAQHGRLVVIVNSDEWLLKKKGYVFMPWEERAELIGAYDFVDE | -0.964
28 | HMGELDPKIIAQINTFLQGITKLIEHPGNKDAKKTALGALHKLTFDQNITANFGKQLGQLDQVIQSSEET | 0.0337

Row | Sequence | soluble fraction (log2)
29 | HMGELGPGSRGQAVRALQERLMALGFPLARFGADGIFGRETTGALRAFQHVAGLSPTGLGDHETLKWLGII | -1.33
30 | HMGELTNALATLSERERDVARLVAQGLDNRQIAAQLFLSEGTVRNRISDILDKLALTNRTQLAIAWLHAE | -1.4
31 | HMGEPTLTIRVVSYNPQSGEMVVVARDPLSGRYALATLNVRTGAGQMIGPQGELLPIENFALGS | -1.65
32 | HMGEQVAVPDVTKKSVREVNNILTSAGLRLQIEGSGISVRQDPPADTMVAPDTVVTVSFEPP | 0.118
33 | HMGEQVFSRKDLAINGNDLKAVFGWPPGPKYREALDQLFHWVLEDPARNRRETLLAYLHSLYD | -0.136
34 | HMGESEKTLELVSQKDALVDEAFFFVRFQALLESNKTKGAQDLLDQSNHLSAAKLLQANAYLDIV | 0.44
35 | HMGESFEELAREISDDTGSKTEGGETGLFPRGVMAPQFEEAAFLLKVGDISEPIRTKFGYHIIKLKEIKP | -0.0117
36 | HMGESVVVPDLRGKTLEEARAILKKVDLDYEINDSTYSKTAVPGTIRDIVPAPGSHVKAGRILFVSING | -0.553
37 | HMGETISVPAVRSLAYDRAVDMLTAEGLKGIVADSVYDNRTQPGTVIEQNPKAGTIVKEGREVYLTINA | 0.275
38 | HMGFAPEAAREEVAQLIGQRGRAVTVLRPSGQVEIAGRRFEATVEVGAVDAGDTIVVRGQTAFALLVEKAD | -0.292
39 | HMGFKLQRYTTFVVERLKKYQDTPAAQMHDLLKEHYPDFPAVSPKTVYNYVMKIRQEHGLPAV | -4.26
40 | HMGFSERLAQAMSHAGYTQGGLAKAVGMAQSSVNKLLNNANSSRKTVEIASVLGVRPEWLSTGEGDML | -0.092
41 | HMGFSKGKRDLIRMIKLAIRELADDNGRAQIEDVITRLVQEGHSRDEIRLQIDMFLRQGEAMEPKQGIIKL | -1.08
42 | HMGFSLEQFGTDPDLKKIVENAFERIITASEGRIFKSDFSSNNSALPLEIFSFLIAVILLKLSGMN | -0.157
43 | HMGFVATRSRKFLPFSEARAITRGLGFSNQKDYKEWIKGNGNELLLPFNPWRTYGDSGWKGWKDFLGTDKA | -1.39
44 | HMGFYDLFINLADKVGSLADVTQILAEARINLVNVHILEIREEIDGIAQLTFSSEKDRQKALELLKTKYK | -1.87
45 | HMGGDFVEHLKDLASEAPVIRLVNTIIGRVIDLRASDIHLEPFDDGLHVRYRVDGVIHPGELVPPRLS | 0.0444
46 | HMGGEGQIEIREREGIPAEAWVDGVMRGQTPLRVEHVSIGTRRVELRAEGRPPVAADVLVRPTVTALVELS | 0.263
47 | HMGGEHPIPEDWAVNEANYEHGAKFYGYTRAHVDAEAQAFRDQYAANGKKYVDWDAHFRTFMRWQNERRYG | -0.0635
48 | HMGGEPVSARVPDTLHGARLDATAAALFPDFSRSRLAEWIKAGRLRRNDQPAKPRDKVAVDDHLLLIPEY | 0.0937
49 | HMGGFSVTAEAFDGTPEVGKTVGFTAGSTKIKVEDTKGDATFGTILEKETVGFGEGKYTYFYIGL | -0.428
50 | HMGGKAITGGEGEIIIRADKAETVAIYGIDGRLVHRVSTEAGDTKRVSVPAGIYIVKGAKVVV | 0.179
51 | HMGGKTAVVTGSLVNVRKGPGTGNALVGQVARGDELPVLGQDGDWYQIKLANGSNGWVAGWLVSLKDAVP | 0.334
52 | HMGGLIDQSIQEIIDKYSVPGKKIQKAQRLKIVAEMHTKGIFKMRGGVQQAAQALGVTRYTVYNDLEVMN | -3.08
53 | HMGGLLSVIQKKAINNVKDRYSENAIKSMTKVQLHDLIKAETSRLLDPANAKETPEYQAFLEE | -0.0634
54 | HMGGLSAEQKNGIQSVLKNFDPKNLTSADAKSITSEFKKLGVQPGKDLETTMAASGFDAKEVGRLAF | 0.106
55 | HMGGPRDVPYSTFLIEVEKGQVAEVTIQDHKITGTYKNSNEPFITNAPDDPDLVSRLIKYGVGVQAKPPE | 0.0896
